From patent US20100227824A1 (SYMTHERA CANADA, published 2010)

Columns and labels:
Assay in all cases: micro-array, phage-presented peptide on printed CK
GRO-β (CXCL2) = biological target: T1, GRO-β (CXCL2) (UniProt P19875 35-107)
T1 construct: Bought chemokine
T1 sequence (looked up): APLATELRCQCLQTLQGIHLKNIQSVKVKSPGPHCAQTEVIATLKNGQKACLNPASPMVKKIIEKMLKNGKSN
Description: (§1) (1) Printing: Chemokine (CK) solution (in water) was serially diluted with Print Reagent (GenTel BioSurfaces USA) to final concentrations of 50 μg and 25 μg/ml. BSA/BSA-Biotin control solutions (in water) were diluted with Print Reagent to 100 μg/ml. Amplified stock of M13 phage control (M13KEgIII Cloning Vector, New England Biolabs, Cat.No.E8101S) was stored in Tris Buffered Saline (TBS; pH7.5, 4° C.) and diluted with Print Reagent to the working titre (10^8 pfu/μl). An automated spotting robot (16 pin print tool, 0.4mm head; BioRobotics, UK) was used to print the CK/BSA control/M13 control, 5 repeats per sample (CK 25 μg/ml and 50 μg/ml; BSA 100 μg/ml; M13 20 μl), on PATH Protein Microarray Slides (GenTel, Prod.No.2-1005/-1025) at […], and 50-70% relative humidity. Printed micro-array slides were stored at Room Temperature (RT) or 4° C. for at least 24 h before use.
(§2) (2) Blocking: Block Buffer (500 μl/partition; PATHblock, GenTel, Prod.No.2-1014) was applied to the slide for 1 hour at room temp (RT). After removal of Block Buffer, the slide was air dried for 25 minutes;
(§3) (11) Analysis: Quantitative analysis of micro-array was performed by the SpotReader program of Niles Scientific (USA) and presented as Relative Fluorescence (RF) as a function of CK concentration. Micro-array readout (Cy3 fluorescence) was quantified to determine the relative binding affinities of a CBP for the CKs and by inference, the specificity of the CBP for binding to a CK.

IL-8 (CXCL8) = biological target: T2, IL-8 (CXCL8) (UniProt P10145 28-99, limits assumed)
T2 construct: also called IL-8(72aa); IL-8(77aa)
T2 sequence (looked up): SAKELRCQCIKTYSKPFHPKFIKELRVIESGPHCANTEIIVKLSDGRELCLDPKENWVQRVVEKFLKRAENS
Description: as §1, §2, §3

Mig (CXCL9) = biological target: T3, Mig (CXCL9) (UniProt Q07325 23-125)
T3 construct: Bought chemokine
T3 sequence (looked up): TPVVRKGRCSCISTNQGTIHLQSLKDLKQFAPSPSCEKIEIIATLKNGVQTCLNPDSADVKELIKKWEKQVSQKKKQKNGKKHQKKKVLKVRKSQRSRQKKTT
Description: as §1, §2, §3

IP-10 (CXCL10) = biological target: T4, IP-10 (CXCL10) (UniProt P02778 22-98)
T4 construct: Bought chemokine
T4 sequence (looked up): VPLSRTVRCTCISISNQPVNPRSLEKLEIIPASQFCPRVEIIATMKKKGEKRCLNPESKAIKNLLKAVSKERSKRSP
Description: as §1, §2, §3

MCP-1 (CCL2) = biological target: T5, MCP-1 (CCL2) (UniProt P13500 24-99)
T5 construct: Bought chemokine
T5 sequence (P13500 24-99 limits assumed): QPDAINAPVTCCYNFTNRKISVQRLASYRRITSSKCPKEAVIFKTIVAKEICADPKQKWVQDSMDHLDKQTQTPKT
Description: as §1, §2, §3

MCP-2 (CCL8) = biological target: T6, MCP-2 (CCL8) (UniProt P80075 24-99)
T6 construct: Bought chemokine
T6 sequence (looked up): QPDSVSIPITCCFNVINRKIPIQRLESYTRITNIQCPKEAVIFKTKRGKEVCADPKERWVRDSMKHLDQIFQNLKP
Description: as §1, §2, §3

MCP-4 (CCL13) = biological target: T7, MCP-4 (CCL13) (UniProt Q99616 24-98)
T7 construct: Bought chemokine
T7 sequence (Q99616 24-98 limits assumed): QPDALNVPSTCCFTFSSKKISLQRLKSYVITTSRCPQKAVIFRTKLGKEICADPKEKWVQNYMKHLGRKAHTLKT
Description: as §1, §2, §3

RANTES (CCL5) = biological target: T8, RANTES (CCL5) (UniProt P13501 24-91)
T8 construct: Bought chemokine
T8 sequence (looked up): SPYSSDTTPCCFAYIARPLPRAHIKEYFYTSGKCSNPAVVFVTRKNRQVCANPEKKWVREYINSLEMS
Description: as §1, §2, §3

Eotaxin (CCL11) = biological target: T9, Eotaxin (CCL11) (UniProt P51671 24-97)
T9 construct: Bought chemokine
T9 sequence (P51671 24-97 limits assumed): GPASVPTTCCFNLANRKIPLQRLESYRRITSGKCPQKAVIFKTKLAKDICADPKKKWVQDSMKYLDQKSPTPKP
Description: as §1, §2, §3

Eotaxin 3 (CCL26) = biological target: T10, Eotaxin 3 (CCL26) (UniProt Q9Y258 24-94)
T10 construct: Bought chemokine
T10 sequence (looked up): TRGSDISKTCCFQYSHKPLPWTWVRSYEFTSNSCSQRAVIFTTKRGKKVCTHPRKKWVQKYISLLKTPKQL
Description: as §1, §2, §3

BCA-1 (CXCL13) = biological target: T11, BCA-1 (CXCL13) (UniProt O43927 23-109)
T11 construct: Bought chemokine
T11 sequence (looked up): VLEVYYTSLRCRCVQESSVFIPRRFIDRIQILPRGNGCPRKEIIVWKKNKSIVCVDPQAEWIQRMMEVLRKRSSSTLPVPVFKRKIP
Description: as §1, §2, §3

Exodus-2 (CCL21) = biological target: T12, Exodus-2 (CCL21) (UniProt O00585 24-134)
T12 construct: Bought chemokine
T12 sequence (looked up): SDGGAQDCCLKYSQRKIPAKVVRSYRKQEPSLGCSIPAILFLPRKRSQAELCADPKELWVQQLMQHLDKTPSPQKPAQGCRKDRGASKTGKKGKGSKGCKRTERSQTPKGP
Description: as §1, §2, §3

TECK (CCL25) = biological target: T13, TECK (CCL25) (UniProt O15444 24-150)
T13 construct: Bought chemokine
T13 sequence (looked up): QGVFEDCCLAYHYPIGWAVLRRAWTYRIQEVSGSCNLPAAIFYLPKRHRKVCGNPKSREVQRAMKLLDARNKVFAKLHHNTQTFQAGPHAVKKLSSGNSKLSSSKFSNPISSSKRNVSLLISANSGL
Description: as §1, §2, §3

Lymphotactin (XCL-1) = biological target: T14, Lymphotactin (XCL-1) (UniProt P47992 23-114, limits assumed)
T14 construct: Bought chemokine
T14 sequence (looked up): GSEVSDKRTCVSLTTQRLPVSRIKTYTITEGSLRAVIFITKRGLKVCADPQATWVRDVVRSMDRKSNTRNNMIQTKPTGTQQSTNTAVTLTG
Description: as §1, §2, §3

I-TAC (CXCL11) = biological target: T15, I-TAC (CXCL11) (UniProt O14625 22-94)
T15 construct: Bought chemokine; also called I-TACK
T15 sequence (looked up): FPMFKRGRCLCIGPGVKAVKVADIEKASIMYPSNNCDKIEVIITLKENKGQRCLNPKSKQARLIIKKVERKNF
Description: as §1, §2, §3

I-309 (CCL1) = biological target: T16, I-309 (CCL1) (UniProt P22362 23-96, limits assumed)
T16 construct: Bought chemokine
T16 sequence (looked up): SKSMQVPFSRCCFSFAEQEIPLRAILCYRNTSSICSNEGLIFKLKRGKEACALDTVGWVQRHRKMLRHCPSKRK
Description: as §1, §2, §3

Eotaxin 2 (CCL24) = biological target: T17, Eotaxin 2 (CCL24) (UniProt O00175 27-104, limits assumed)
T17 construct: Bought chemokine
T17 sequence (looked up): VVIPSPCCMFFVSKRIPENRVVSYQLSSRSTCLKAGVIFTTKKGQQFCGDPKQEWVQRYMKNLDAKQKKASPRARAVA
Description: as §1, §2, §3

SDF-1α (CXCL12) = biological target: T18, SDF-1α (CXCL12) (UniProt P48061-2 22-89)
T18 construct: Alpha isoform of CXCL12; also called SDFα
T18 sequence (P48061 22-89 limits assumed): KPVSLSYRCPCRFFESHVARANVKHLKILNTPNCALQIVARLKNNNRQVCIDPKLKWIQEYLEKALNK
Description: as §1, §2, §3

SDF-1β (CXCL12) = biological target: T19, SDF-1β (CXCL12) (UniProt P48061 22-93)
T19 construct: Beta isoform of CXCL12; also called SDFβ
T19 sequence (P48061 22-93 limits assumed): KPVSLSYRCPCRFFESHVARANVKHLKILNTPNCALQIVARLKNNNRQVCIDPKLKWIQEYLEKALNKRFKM
Description: as §1, §2, §3

MDC(69aa) (CCL22) = biological target: T20, MDC(69aa) (CCL22) (UniProt O00626 25-93)
T20 construct: Bought chemokine
T20 sequence (looked up): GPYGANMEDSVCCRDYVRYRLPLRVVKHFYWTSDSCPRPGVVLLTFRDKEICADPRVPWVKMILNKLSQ
Description: as §1, §2, §3

Binder	Relative Fluorescence Units (RFU) (GRO-β (CXCL2))	Relative Fluorescence Units (RFU) (IL-8 (CXCL8))	Relative Fluorescence Units (RFU) (Mig (CXCL9))	Relative Fluorescence Units (RFU) (MCP-2 (CCL8))	Relative Fluorescence Units (RFU) (MCP-4 (CCL13))	binding result (Eotaxin (CCL11))	binding result (Eotaxin 3 (CCL26))	binding result (BCA-1 (CXCL13))	binding result (Exodus-2 (CCL21))	binding result (TECK (CCL25))	binding result (Lymphotactin (XCL-1))	Relative Fluorescence Units (RFU) (RANTES (CCL5))	further results
WVFGHGMCK [Phage-Presented Peptide 25 (Ph-p25)]	> 15000	> 15000	> 15000	> 15000	> 15000	binds	binds	binds	binds	binds	binds		Relative Fluorescence Units (RFU) (IP-10 (CXCL10)): > 15000 RFU; Relative Fluorescence Units (RFU) (MCP-1 (CCL2)): > 15000 RFU; binding result (RANTES (CCL5)): binds
DYDY [Phage-Presented Peptide 32 (Ph-p32)]	> 10000	> 10000	> 10000	> 10000	> 10000			binds	binds	binds	binds	> 10000	Relative Fluorescence Units (RFU) (I-TAC (CXCL11)): > 10000 RFU; Relative Fluorescence Units (RFU) (I-309 (CCL1)): > 10000 RFU; Relative Fluorescence Units (RFU) (Eotaxin (CCL11)): > 10000 RFU; Relative Fluorescence Units (RFU) (Eotaxin 2 (CCL24)): > 10000 RFU; Relative Fluorescence Units (RFU) (Eotaxin 3 (CCL26)): > 10000 RFU; binding result (SDF-1α (CXCL12)): binds; binding result (SDF-1β (CXCL12)): binds
HHTCSLHFP [Phage-Presented Peptide 16 (Ph-p16)]					> 15000	binds	binds	binds		binds	binds	> 15000	binding result (GRO-β (CXCL2)): binds; binding result (Mig (CXCL9)): binds; binding result (I-TAC (CXCL11)): binds; binding result (I-309 (CCL1)): binds; binding result (MCP-1 (CCL2)): binds; binding result (MCP-2 (CCL8)): binds; binding result (Eotaxin 2 (CCL24)): binds; binding result (MDC(69aa) (CCL22)): binds
